Assay results published in patent US8178581B2, “Production of peracids using an enzyme having perhydrolysis activity” (E. I. du Pont de Nemours and Company, priority 2005, dated 2012).

Assay: Perhydrolysis of triacetin with hydrogen peroxide; peracetic acid measured by HPLC method of Karst et al.
Type: biochemical
Settings: Table 14: triacetin 250 mM, H2O2 1.0 M, pH 6.5, 25° C., 50 μg/mL of commercial lipase
Procedure: Determination of the concentration of peracetic acid in the reaction mixture was performed according to the method described by Karst et al. Aliquots (0.250 mL) of the reaction mixture were removed at 10 min and 30 min and filtered using an Ultrafree® MC-filter unit (30,000 Normal Molecular Weight Limit (NMWL), Millipore cat #UFC3LKT 00) by centrifugation for 2 min at 12,000 rpm; removal of the protein component of the aliquot by filtration terminated the reaction. An aliquot (0.100 mL) of the resulting filtrate was transferred to 1.5-mL screw cap HPLC vial (Agilent Technologies, Palo Alto, Calif.; #5182-0715) containing 0.300 mL of deionized water, then 0.100 mL of 20 mM MTS (methyl-p-tolyl-sulfide) in acetonitrile was added, the vials capped, and the contents briefly mixed prior to a 10 min incubation at ca. 25° C. in the absence of light. To each vial was then added 0.400 mL of acetonitrile and 0.100 mL of a solution of triphenylphosphine (TPP, 40 mM) in acetonitrile, the vials re-capped, and the resulting solution mixed and incubated at ca. 25° C. for 30 min in the absence of light. To each vial was then added 0.100 mL of 10 mM N,N-diethyl-m-toluamide (DEET; HPLC external standard) and the resulting solution analyzed by HPLC as described below.
Supelco Discovery C8 column (10-cm×4.0-mm, 5 μm) (cat. #569422-U) w/precolumn Supelco Supelguard Discovery C8 (Sigma-Aldrich; cat #59590-U); 10 microliter injection volume; gradient method with CH3CN (Sigma-Aldrich; #270717) and deionized H2O at 1.0 mL/min and ambient temperature: […]
An extract of E. coli UM2/pSW186 transformant (20 mg total protein/mL extract, prepared as described in Example 21) was employed in 1.0 mL perhydrolysis reactions (run as described in Example 21) containing triacetin (40 mM or 100 mM), hydrogen peroxide (40 mM or 100 mM) and extract total protein (0.1 mg/mL or 1.0 mg/mL) in phosphate buffer (Pi, 100 mM, 200 mM or 300 mM) at pH 6.5 or 7.5 at 25° C. each reaction (Table 11).
(§1) Separate 1.0 mL reactions containing triacetin (250 mM), hydrogen peroxide (1.0 M) and 50 μg of extract total protein in 50 mM phosphate buffer (pH 6.5) were run at 25° C. with each transformant extract. […] The concentration of peracetic acid in the reaction mixtures (Table 12) was determined according to the method of Karst et al. as described in Example 2.
as §1, with “1-mL” for “1.0 mL”, “protein from a cell extract (prepared as described above)” for “protein”, “C.” for “C. with each transformant extract.”, “13)” for “12)”, “al.” for “al. as”, “2. […]” for “2.”

Row | Molecule | PAA (ppm); 5 min [ppm] | PAA (ppm); 30 min [ppm]
1 | Novozymes Lipolase 100 L type EX: commercial lipase, source Thermomyces lanuginosus (Novozymes) (protein, UniProt O59952 23-291, looked up) Lipase: EVSQDLFNQFNLFAQYSAAAYCGKNNDAPAGTNITCTGNACPEVEKADATFLYSFEDSGVGDVTGFLALDNTNKLIVLSFRGSRSIENWIGNLNFDLKEINDICSGCRGHDGFTSSWRSVADTLRQKVEDAVREHPDYRVVFTGHSLGGALATVAGADLRGNGYDIDVFSYGAPRVGNRAFAEFLTVQTGGTLYRITHTNDIVPRLPPREFGYSHSSPEYWIKSGTLVPVTRNDIVKIEGIDATGGNNQPNIPDIPAHLWYFGLIGTCL | 10 | 0
2 | Novozymes Lipozyme TL 100 L: commercial lipase, source Thermomyces lanuginosus (Novozymes) (protein, UniProt O59952 23-291, looked up) Lipase: EVSQDLFNQFNLFAQYSAAAYCGKNNDAPAGTNITCTGNACPEVEKADATFLYSFEDSGVGDVTGFLALDNTNKLIVLSFRGSRSIENWIGNLNFDLKEINDICSGCRGHDGFTSSWRSVADTLRQKVEDAVREHPDYRVVFTGHSLGGALATVAGADLRGNGYDIDVFSYGAPRVGNRAFAEFLTVQTGGTLYRITHTNDIVPRLPPREFGYSHSSPEYWIKSGTLVPVTRNDIVKIEGIDATGGNNQPNIPDIPAHLWYFGLIGTCL | 125 | 370
